# Source: paper PMC7769458, “In vitro and in vivo characterization of Recifercept, a soluble fibroblast growth factor receptor 3, as treatment for achondroplasia” (PLoS ONE, 2020)
# T1: human FGF17 (human, UniProt O60258 23-216)
# T1 construct: fibroblast growth factor 17, human, recombinant; also called hFGF17; source: recombinant
# T1 sequence (looked up): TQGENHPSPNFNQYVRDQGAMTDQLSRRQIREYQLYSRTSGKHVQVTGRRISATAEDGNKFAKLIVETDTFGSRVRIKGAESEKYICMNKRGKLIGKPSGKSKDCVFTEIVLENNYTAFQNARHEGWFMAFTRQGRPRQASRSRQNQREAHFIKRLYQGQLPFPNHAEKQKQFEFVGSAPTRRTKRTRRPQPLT
# T2: human FGF18 (human, UniProt O76093 28-207)
# T2 construct: fibroblast growth factor 18, human, recombinant; also called hFGF18; source: recombinant
# T2 sequence (looked up): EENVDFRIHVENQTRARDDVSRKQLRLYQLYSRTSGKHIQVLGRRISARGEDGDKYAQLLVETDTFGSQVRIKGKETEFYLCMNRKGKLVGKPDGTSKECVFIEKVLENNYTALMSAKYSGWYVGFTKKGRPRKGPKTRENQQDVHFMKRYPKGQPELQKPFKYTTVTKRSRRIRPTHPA
# Tests used:
# Conditions in all cases: both partners purified
# [1] = molecular target: human FGF8 (human, UniProt P55075 23-233, Isoform, supplier and limits are not printed. Assumed the FGF8b isoform (mature 23-215), the usual commercial recombinant form and the one that binds FGFR3c; the P55075 canonical sequence is FGF8e. Th); assay: SPR; as a1 (Recifercept amine-coupled on a CM5 chip, hFGF in HBS-EP, single cycle kinetics, 0 to 16 nM, 1:1 fit, triplicate) but with 16 nM heparin in each tested concentration (FGF8 subfamily)
# [2] = molecular target: T1, human FGF17; assay: as above
# [3] = molecular target: T2, human FGF18; assay: as above
# [4] = molecular target: T3, human FGF1 (human, UniProt P05230 16-155); assay: SPR; Biacore T200; Recifercept amine-coupled on a CM5 chip (about 400 RU); hFGF injected in HBS-EP (0.01 M HEPES, 0.15 M NaCl, 3 mM EDTA, 0.05% polysorbate 20, pH 7.4) at 50 ul/min; single cycle kinetics, 5 concentrations from 0 to 16 nM; global 1:1 fit; triplicate
# T3 construct: fibroblast growth factor 1, human, recombinant; also called hFGF1; source: recombinant; bought: Peprotech for the cell assays
# [5] = molecular target: T4, human FGF2 (human, UniProt P09038 143-288); assay: as above
# T4 construct: fibroblast growth factor 2, human, recombinant; also called hFGF2; source: recombinant; bought: Peprotech for the cell assays
# [6] = molecular target: human FGF9 (human, UniProt P31371 4-208); assay: as above
# [7] = molecular target: T5, human FGF16 (human, UniProt O43320 1-207); assay: as above
# T5 construct: fibroblast growth factor 16, human, recombinant; also called hFGF16; source: recombinant
# [8] = molecular target: T6, human FGF20 (human, UniProt Q9NP95 1-211); assay: as above
# T6 construct: fibroblast growth factor 20, human, recombinant; also called hFGF20; source: recombinant
# T6 sequence (Q9NP95 whole entry): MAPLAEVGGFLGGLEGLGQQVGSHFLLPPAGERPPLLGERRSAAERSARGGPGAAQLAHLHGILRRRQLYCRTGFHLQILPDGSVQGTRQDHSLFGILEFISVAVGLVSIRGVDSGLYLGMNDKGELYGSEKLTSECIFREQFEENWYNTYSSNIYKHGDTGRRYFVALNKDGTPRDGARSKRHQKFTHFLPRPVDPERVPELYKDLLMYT
# T4 sequence (P09038 143-288): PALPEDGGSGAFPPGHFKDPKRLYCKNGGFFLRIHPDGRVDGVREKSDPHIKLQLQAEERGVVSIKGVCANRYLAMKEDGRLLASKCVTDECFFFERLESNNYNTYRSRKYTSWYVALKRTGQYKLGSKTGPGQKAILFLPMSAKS
# T3 sequence (P05230 16-155): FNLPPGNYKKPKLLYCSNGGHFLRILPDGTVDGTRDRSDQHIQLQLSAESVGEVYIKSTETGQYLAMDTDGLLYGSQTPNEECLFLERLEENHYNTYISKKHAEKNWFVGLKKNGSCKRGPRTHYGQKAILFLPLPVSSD
binder,measurement,setting,value
"Recifercept (receptor, extracellular domain of human FGFR3 (P22607); also called soluble fibroblast growth factor receptor 3; modified soluble recombinant human FGFR3; source: GPEX CHO cell line, 50L single use bioreactor, media filtered, purified using chromatography) ESLGTEQRVVGRAAEVPGPEPGQQEQLVFGSGDAVELSCPPPGGGPMGPTVWVKDGTGLVPSERVLVGPQRLQVLNASHEDSGAYSCRQRLTQRVLCHFSVRVTDAPSSGDDEDGEDEAEDTGVDTGAPYWTRPERMDKKLLAVPAANTVRFRCPAAGNPTPSISWLKNGREFRGEHRIGGIKLRHQQWSLVMESVVPSDRGNYTCVVENKFGSIRQTYTLDVLERSPHRPILQAGLPANQTAVLGSDVEFHCKVYSDAQPHIQWLKHVEVNGSKVGPDGTPYVTVLKTAGANTTDKELEVLSLHNVTFEDAGEYTCLAGNSIGFSHHSAWLVVLPVSLESNASMSSNT",Kd,[1],4.28 nM
same,koff,[1],0.000705 s⁻¹
same,kon,[1],171000 M⁻¹ s⁻¹
same,Kd,[2],2.73 nM
same,koff,[2],0.000964 s⁻¹
same,kon,[2],390000 M⁻¹ s⁻¹
same,Kd,[3],4.17 nM
same,koff,[3],0.00105 s⁻¹
same,kon,[3],270000 M⁻¹ s⁻¹
same,Kd,[4],0.74 nM
same,koff,[4],0.000904 s⁻¹
same,kon,[4],1.33e+06 M⁻¹ s⁻¹
same,Kd,[5],3.4 nM
same,koff,[5],0.000898 s⁻¹
same,kon,[5],279000 M⁻¹ s⁻¹
same,Kd,[6],0.75 nM
same,koff,[6],0.00133 s⁻¹
same,kon,[6],1.83e+06 M⁻¹ s⁻¹
same,Kd,[7],0.94 nM
same,koff,[7],0.00253 s⁻¹
same,kon,[7],2.8e+06 M⁻¹ s⁻¹
same,Kd,[8],7.1 nM
same,koff,[8],0.000548 s⁻¹
same,kon,[8],123000 M⁻¹ s⁻¹
